Laboratory results published in the DeepSol protein solubility set.

experiment: soluble on expression in E. coli; label from the status in PepcDB or PDB records

**Q.** With “MGSDKIHHHHHHMAVLVTRPDERGQQLVDMLAKAGVVAIHLPLFRIESGAELNELPNKFAKLKNGDYVFAVSKSAVDFAFKTLTATGFVWRHDLHYFTVGQGTAQYFTATTEMPVHYPTAQENSEGLLQLNAMQDLSDKTVLILRGNGGRELFAEQAQQRGANVEIVECYRREPIVYNNAEQTSICKRAGIQTIVVTSAEILTQLVDFVPQNEHNWLKSCQLITVSERIAHLAEALGWQNVVISPRADNQTLLQTLLQCR” as the sequence, how does the “soluble on expression in E. coli” value read?
**A.** not soluble

**Q.** Which “soluble on expression in E. coli” value does the source give for “MGSDKIHHHHHHMAWLLVGTKKYEDFEKNERVNRWYLNVRARSPISADIWRRSLLRYCTINNTTPEGLLDMAQKGTLKDNFQDFTIRMIAEGRRGAYLAKVKEILHSWIRFNDIDYKIRINIPNERLNETTMDERVPTKEELSKILRMGTVRSRVSVSLMAFSGLRPEVLGNYEGTDGLTLGDIEDLDIDTLTFKNVPAKINVRNGLSKTRLKYFTFLGQEGCGYLKDYLDHRKASGEILKKESALLAPDPGNVQTAHGFLRTALIAREIRKAIRNSNLSMRPYVLRVYFATALDIAESKGSISHPWRQYIMGHKGDIEATYSTNKRLLPETIEGMRSAYLKCTKFFETEEKGIKEEDYQKMLRDSAIDTLTGAFGITLTDDQKEELRNLDTAEYQKRLGEIFKDRKADLLNNGNSQKVIPFKDVEKYIEQGWEYVRDFPGNKAIVRLPS” here?
**A.** not soluble

**Q.** Which “soluble on expression in E. coli” value does the source give for “MGSDKIHHHHHHMAYSDTPEQSAVINWKGRHLVVNAFAGTGKTTTLVRYAQANPDRRMLYLAYNRAVRDDAERKFPFNVECKTSHQLAWMKFGKHLKPRLTPNLRITDVARKLNTRHWPLVRMALAALNHFLCSASPALSYEHLPDENNREGLDAGNILGAAQFLWNEMSRIDSTFPVTHDTYLKLFQLSVPDLSKRWDTILFDEAQDANPVISSLVLTQNCNVVLVGDRHQQIYRFRGADNALNAPVLEGADRLWLTQSFRFGSAVAEMANVLLARQEETHPVIGNGGDDDVIDRLPADVSRYTILSRTVAGVIGAALYESMKEKIVYWVGGIEGYKTEELEDLYWFSVDMPERMRTPRLSREYRDFEEYKSMTKATGDVEMNQAIGLLDKYFPLPQKLQVLRSQATTNEKDADVVVSTAHRSKGLEWDTVMLNDDFSDITDPLLSEAARTDETNLLYVATTRARKLLVRNELLKLLCEQEESDDIAEDQFTDSNLI” here?
**A.** not soluble

**Q.** With “MGSDKIHHHHHHMCIYCISKQVFCLSGLRFPYGFTPMGLHLRSLNMAYINKSNVSILRSLSCASISLYYSMSAAASHLEVDDPALAERCELEMGWQQPRSDHARTQLNATTTCSRNQWEWHVGLASNVNDDIREEQAEVGIKLPLNLNSHSDSNRQQDDWHSALVINLQKNLDASNELATEVFGIFGKTLSDSDVSLYANVGFTHEFNQSTQLLVGIAAAHELSSHHRVITELYQKELSETAYQFAYQHTPQQQLQLELSLGNALRGNALQLGADITFYFGH” as the sequence, how does the “soluble on expression in E. coli” value read?
**A.** not soluble

**Q.** Which “soluble on expression in E. coli” value does the source give for “MGSDKIHHHHHHMCQRPPARRATGPFPTLTASRAAARACTVTFQPNCARPCVRQRPEAAIDMAKTYNPAHADISPAARLAALGAGEAVDLGEYRVIRATHQDRPVFFAVRNAMDAIQKHHIEGAFYETEELDIIRRHFAPGETFIDLGANVGNHALYVAMYLEPAKVLCVEPNSLAYENLLANIVLNGVEETFDLSWLGFGVSCNVGDGFGITHWVHNLGGGKLIPRDGGTISLRSGDDILADTKADFIKIDVEGMEMDVLTSLENTVARDRPKIFVEVDNENRDAVLAWVDTHGYTTHETFKRYRDNENFLFVPESESET” here?
**A.** not soluble

**Q.** For “MGSDKIHHHHHHMDAAKDDLEHAKHDLEHGFYNWACFSSQQAAEKAVKAVFQRMGAQAWGYSVPDFLGELSSRFEIPEELMDHALELDKACIPTRYPDALPSGSPRNRYSRIEAERLVNYAEKIIRFCEDLLSRI”, which “soluble on expression in E. coli” value is on record?
**A.** soluble

**Q.** Which “soluble on expression in E. coli” value does the source give for “MGSDKIHHHHHHMDALVRASGLRGYPALMRDLGCDPTPLLQRYHLDEGALGSDDAMISLRAVVHLLEASAEQTRTGDLGLRLSRHQSIDVLGPLSIALQNAPTIRAAMDFAARHTFVHSPGLVYAVHKHSEFANDAAEVSIEIRLSRQPAQRQTIDLCLADIHNFTRLLAGDRYLLRAVSVPHTPVVPVSTYERFFGARVWVEQPRASLHLSRSTLAADLLGVDATLRRIAEDYIFRHFGSEQGSVSDRVRQVLRQTLGTSSHSKATVADLLALHPRTMQRRLAAEATSFEAIRDDVRRELAMRYLCETSLPLGQISLLLGLPAQSALSRACRQWYGVPPSALRKHKRAAD” here?
**A.** not soluble

**Q.** With “MGSDKIHHHHHHMDCFYDYHKSLSPDEYVWDYEEFLYYGSDKFIKDVFVDGGVDIALSQPAYLQFFFREPFGNTNEFGTMALKYPYRFIIGTRWDPREGEEGKRQLEEDVRKYRVKPWQMRHVKLYTAEWKEVNGGISRGWRLDSPQAFEFLEFNRELGIDIQVPHKGPTVWPLSKDAFDVHDVDTAASSFPELRFVVTHVGLPRIDDFSWIGVQDKNVYAGLAVATAFIRKRPKYFAEIMAELLFWLGPDRIIFGSDYAIWHPKWIIEDFIKFELPRDLESEYGVELTLENKKKILGENAARLWGIDVEEAKKAVREDQIASRYGAKPRVFKVEG” as the sequence, how does the “soluble on expression in E. coli” value read?
**A.** not soluble

**Q.** With “MGSDKIHHHHHHMDDLLLELARQYRNRYYGKYRGFVTDNDDPEQRGRLRLMVPSVLGETPTGWALPSLPFGGLADQGLFMVPEVDAQVWVEFEAGNVNLPIWTGTFWQASGDPPAEAAKSPPTTRVLKTPSGHILQFDDESGAEKFRLAHPAGTEMTVDEKGTVIVADAKGNTLTLDADAGKVVVEDSNGNTITMSSSGTTIEDANGNKVEMAASGVTVKGQQVVVDAQTVMLAGQGGEPIIKGQSFLTLFATHVHPSAMGPTGPPIPQGEMSTLSMKVMTS” as the sequence, how does the “soluble on expression in E. coli” value read?
**A.** not soluble

**Q.** With “MGSDKIHHHHHHMDEALRTYIRVVELQSFTKAAEELHISQPAVSLQLKKLEEIYETELIYRQAKKFILTATGEILYHRAKQLEGLYKQVEDEISLYHHHLKGRLRIGASFTIGEYFLPEVIAKFHALYPDITIELIIENTAKIADKVELLQVDTGLIEGQVSKKDLEISAFSDDEMCIVGRADGSLTEIEQGATWIAREEGSGTREYLDHVLSTNGWNVAEKVVAWSNMAVKQMVLEGMGYTVISKCVVQTEITSGKLQTFNEAGSLMRKFSVLKNRQRLENRIAETFLTFLKENQ” as the sequence, how does the “soluble on expression in E. coli” value read?
**A.** not soluble

**Q.** Which “soluble on expression in E. coli” value does the source give for “MGSDKIHHHHHHMDEVSVWRRAWTYVVTTLAQSLPNRCLLCHQTVIEGSGVCSLCLQRCLYHGPVCLGCGRSLVNDGAFCGACRVLGALPVIAPCSYHQGLGASIAAIKYQGQFAALDVLCRALMARVTQLTEEGEIPPVSLLLPVPLHPKRLKTRGFNQAYEIALLLSKLSGIPLCDDLLRRRRDTQPQAGLTGKARRKNLLGAFELTGSCHQGSVALVDDVVTTGSTANEIATMLQLQGVRVQVWCLARAEAPGLLDTFS” here?
**A.** not soluble

**Q.** Which “soluble on expression in E. coli” value does the source give for “MGSDKIHHHHHHMDFIEVYPNAIPDELCDRLIETVNTHPGVIDGITGHGVDLEKKISRDITMDNFQELLPLRNELLNYTLKHSAQYFEKYALGLMGAVAVTLADEQGKPQTLTPDNFDTLGRHRVQPLVQYLYRSGTINIQHYQQGKGGYPHWHSEQFPQMGHNEALHRVVLYMFYLNDVEEGGETEFFYQQRKIKPKKGTMVIAPAGFTHSHRGNMPISGDKYIATSWVMFNRAEKLYAPVG” here?
**A.** not soluble

**Q.** Which “soluble on expression in E. coli” value does the source give for “MGSDKIHHHHHHMDIKQLKFLIALDETRHFGQAAARCNITQPTLSMRLRNLEEELGLPLVNRGQRFEGFTAPGERVLAWARTVLAAYDGLQAEAAACRGHLVGTLRLGVVPMSSFDPLPLLHRLHQLHPNLRFELSSLSSEQVLEQLASNRIDLGVSYLERLDSERFDSLTLDETRMGLLYDRRHFTFGDTPLSWADLVELPLGTLTSGMHFRQSIDHNFHSRGLQPNPLIQTDAVHQLLQAVHGGFCCAIMPLDGGLETLTEHLHLHPIADACTLARLGLIMRRSAPRSALAEACFALVAEIPR” here?
**A.** not soluble

**Q.** Which “soluble on expression in E. coli” value does the source give for “MGSDKIHHHHHHMDKPFRRILLIKMRFHGDMLLTTPVISSLKKNYPDAKIDVLLYQDTIPILSENPEINALYGIKNKKAKASEKIANFFHLIKVLRANKYDLIVNLTDQWMVAILVRLLNARVKISQDYHHRQSAFWRKSFTHLVPLQGGNVVESNLSVLTPLGLDSLVKQTTMSYPPASWKRMRRELDHAGVGQNYVVIQPTARQIFKCWDNAKFSAVIDALHARGYEVVLTSGPDKDDLACVNEIAQGCQTPPVTALAGKVTFPELGALIDHAQLFIGVDSAPAHIAAAVNTPLISLFGATDHIFWRPWSNNMIQFWAGDYREMPTRDQRDRNEMYLSVIPAADVIAAVDKLLPSSTTGTSL” here?
**A.** not soluble

**Q.** With “MGSDKIHHHHHHMDKRIFGIETEFGISYSSPDSRPLAPEEVARYLFRKVVSWGRSSNVFLTNGSRLYLDVGSHPEYATAECDDLGQLIAHDRAGELILDDLVDEAQERLAAEGFNGTVYLFKNNTDSAGNSYGSHENYLIPRRGEFSRLAEILIPFLVTRQLIAGAGKILKTPHGATFAFSQRADHIWEGVSSATTRSRPIINTRDEPHADAEFYRRLHVIVGDSNMSETTALMKVGTVDLILRMIEAGVIMRDMRMENPIRSIREISHDLSGRALIRLANGRQLTALEIQREYLNKVTSFVAENGAHNQHVPLILDLWERTLTAIESGDTSTIDTEIDWAIKKKLMDSYRKRHGLGLDAPRIAQLDLTYHDISRTRGLYYLLQSRGAVRRVVDDTAVKDAVDAPPQTTRAKLRGDFVRRAQELGRDYTVDWVHLKLNDRAHQTILCKDPFRNVDERVDALLDSMG” as the sequence, how does the “soluble on expression in E. coli” value read?
**A.** not soluble

**Q.** For “MGSDKIHHHHHHMDKSIKSNAEKFIMIYNEIDRYMRKVLDENERTGNADLVKKMAKRNKVFEEYKDELMLFARLRNSIVHNPYNAELDPIAEPHDKIIVKYGELRDKILNPPLALDTIAVKGKNIYVVTQNESVLDVMTVMKDNNYANVPVVDNLGMIVGVFSKNTVFSYMVENEGVQIRRDTKINDFKEFIPLHKHENEFFAFVSRKTLAVEIEDMFKKRIHGKKKLSLVFITETGRVKEKILGIVTPWDIAIN”, which “soluble on expression in E. coli” value is on record?
**A.** not soluble

**Q.** Which “soluble on expression in E. coli” value does the source give for “MGSDKIHHHHHHMDLKEKILDYKDEVVKEIQNAVRVKSVKEAPLPGMPFGEGPAKALDHFMDLAKKLGFKAEKFDNYAMHIDMGEGKETLGILAHVDVVPEGDNWTYPPYSGTIADGKIFGRGTLDDKGPAIISLFAMKAIADSGVKLNKKIRMILGADEESGSACLKYYFGELKMPYPDIAFTPDSSFPVTYAEKGSVRVKIKKKFNTLQDLVIKGGNAFNSVPNEANGVIPVDMLGEVRNKNKVEFEREGNTYKVFSAGIPAHGAYPSKGYNAVSALFEVLKDIEVKNEELKGLVTFFDKFVKMETDGKSFGVKCTDGETGELTLNLGKINLENNELEIWIDMRIPVKVKNEQIIETIKENTEDYGYEFLLHSNTQPLYVAKDSFLVSTLMNIYKELTGDNDAEPVAIGGGTYAKYAKNAVAFGALLPDQEDRMHQRDEYLEISKIDKLLQIYVEAIYRLAK” here?
**A.** not soluble

**Q.** Which “soluble on expression in E. coli” value does the source give for “MGSDKIHHHHHHMDLKKWQDPLMNSELQQNYNDNLVKLAGSLEKANQDMTHVNQRISNLVIKSGGNESNEVVDARVSSLVPETEFTTLNDRINYAENALITGVGKLSTNVFDLMDKYNDIDTILKRLYGLDSSNIEIFVDDARGDDIAGTGEIDAPFKTINKAVMTLPRVLNSNSVNIWIVPGRYNEDVVIPPIMGGDIYIRSTNFETVDPTSSTGCQVRSISATGSNGYLYIAGLEETNTAGTTKNYFIKATRCGFVRITKCRMAFNTKAIDPFTAVFIDACSADVNGCYFASQNVDVRGYNTARVEVQNIVHGAKSAIGLYPQSADIFNLNSGTWEADTPTKLSGGGVVRT” here?
**A.** not soluble
